Values quoted from earlier work, collected in patent US20160136246A1, “Novel Uses of GLP-1 Receptor Agonists in Patients Treated with Insulin and/or Suffering from Type 1 Diabetes” (NOVO NORDISK A/S, priority 2013, published 2016).

Conditions: in humans; cited from earlier work

For “GLP-1: glucagon-like peptide-1, a product of proglucagon, gut hormone”, the plasma half-life is given as 2 min.
